T1: human FcγRIIb receptor protein (R&D Systems) (human, UniProt P31994 46-217)
T1 construct: Bought protein injected over captured antibody in Biacore; also called CD32b
T1 sequence (looked up): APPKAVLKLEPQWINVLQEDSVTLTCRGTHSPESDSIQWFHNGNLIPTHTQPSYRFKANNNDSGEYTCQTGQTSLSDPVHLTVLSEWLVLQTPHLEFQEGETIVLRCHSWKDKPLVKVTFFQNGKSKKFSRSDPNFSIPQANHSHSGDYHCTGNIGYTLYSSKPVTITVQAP

T2: mFcγRIIb (Mus musculus, UniProt P08101)
T2 construct: extracellular region, C-terminal His- and GST-tag; also called mouse FcγRII
T2 sequence (receptor extracellular region, looked up): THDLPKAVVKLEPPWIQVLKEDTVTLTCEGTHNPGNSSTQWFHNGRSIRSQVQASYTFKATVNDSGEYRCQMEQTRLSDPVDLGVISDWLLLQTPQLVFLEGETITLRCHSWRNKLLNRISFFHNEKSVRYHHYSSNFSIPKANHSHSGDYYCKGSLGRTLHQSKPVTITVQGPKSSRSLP

T3: cynoFcγRIIb (Macaca fascicularis, UniProt A0A140HDP4)
T3 construct: extracellular region, C-terminal His- and GST-tag; also called cynomolgus monkey FcγRIIb
T3 sequence (receptor extracellular region): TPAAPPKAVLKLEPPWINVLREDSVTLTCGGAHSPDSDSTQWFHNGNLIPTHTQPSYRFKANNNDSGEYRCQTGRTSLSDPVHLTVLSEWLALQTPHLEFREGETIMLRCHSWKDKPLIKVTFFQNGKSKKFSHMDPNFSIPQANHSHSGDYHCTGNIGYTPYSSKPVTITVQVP


Key:
Assay in all cases: SPR
[1] = molecular target: T1, human FcγRIIb receptor protein (R&D …)
mFcγRIIb = molecular target: T2, mFcγRIIb
Experimental: (§1) Variants were screened for receptor affinity using Biacore™ technology, also referred to as Biacore herein, a surface plasmon resonance (SPR) based technology for studying biomolecular interactions in real time. SPR measurements were performed using a Biacore 3000 instrument (Biacore, Piscataway, N.J.). A protein A/G (Pierce Biotechnology) CM5 biosensor chip (Biacore) was generated using a standard primary amine coupling protocol. All measurements were performed using HBS-EP buffer (10 mM HEPES pH 7.4, 0.15 M NaCl, 3 mM EDTA, 0.005% vol/vol surfactant P20, Biacore). Antibodies at 20 nM or 50 nM in HBS-EP buffer were immobilized on the protein A/G surface and FcγRs were injected. After each cycle, the surface was regenerated by injecting glycine buffer (10 mM, pH 1.5). Data were processed by zeroing time and response before the injection of FcγR and by subtracting appropriate nonspecific signals (response of reference channel and injection of running buffer). Kinetic analyses were performed by global fitting of binding data with a 1:1 Langmuir binding model using BIAevaluation software (Biacore).
(§2) Variant antibodies were tested for their affinity to mouse or cynologous monkey FcγRs using Biacore SPR as described above. Specifically, antibodies were first immobilized on a protein A/G chip to high density, and then followed by injections of the extracellular domain of the mouse or cynologous monkey FcγR of interest. Both association and dissociation phases were tracked in real time using the Biacore technology.

cynoFcγRIIb = molecular target: T3, cynoFcγRIIb
Experimental: as §1, §2

| Binder | Fold vs WT IgG1 [1] [fold] | Kd [1] [nM] | Fold vs WT IgG1 (Kd) (mFcγRIIb) [fold] | Fold vs WT IgG1 (Kd) (cynoFcγRIIb) [fold] |
| --- | --- | --- | --- | --- |
| K326D/L328Y/I332E (antibody, human IgG1, kappa, HuAM4G7 anti-CD19 IgG1 (m1) with these Fc substitutions, EU index; copies: 2 + 2) heavy: EVQLVESGGGLVKPGGSLKLSCAASGYTFTSYVMHWVRQAPGKGLEWIGYINPYNDGTKYNEKFQGRVTISSDKSISTAYMELSSLRSEDTAMYYCARGTYYYGTRVFDYWGQGTLVTVSSASTKGPSVFPLAPSSKSTSGGTAALGCLVKDYFPEPVTVSWNSGALTSGVHTFPAVLQSSGLYSLSSVVTVPSSSLGTQTYICNVNHKPSNTKVDKKVEPKSCDKTHTCPPCPAPELLGGPSVFLFPPKPKDTLMISRTPEVTCVVVDVSHEDPEVKFNWYVDGVEVHNAKTKPREEQYNSTYRVVSVLTVLHQDWLNGKEYKCKVSNDAYPAPEEKTISKAKGQPREPQVYTLPPSREEMTKNQVSLTCLVKGFYPSDIAVEWESNGQPENNYKTTPPVLDSDGSFFLYSKLTVDKSRWQQGNVFSCSVMHEALHNHYTQKSLSLSPGK light: DIVMTQSPATLSLSPGERATLSCRSSKSLQNVNGNTYLYWFQQKPGQSPQLLIYRMSNLNSGVPDRFSGSGSGTEFTLTISSLEPEDFAVYYCMQHLEYPITFGAGTKLEIKRTVAAPSVFIFPPSDEQLKSGTASVVCLLNNFYPREAKVQWKVDNALQSGNSQESVTEQDSKDSTYSLSSTLTLSKADYEKHKVYACEVTHQGLSSPVTKSFNRGEC | 2.65 | 553 | 1.87 | 4.78 |
| L234W/L328Y/I332E (antibody, human IgG1, kappa, HuAM4G7 anti-CD19 IgG1 (m1) with these Fc substitutions, EU index; copies: 2 + 2) heavy: EVQLVESGGGLVKPGGSLKLSCAASGYTFTSYVMHWVRQAPGKGLEWIGYINPYNDGTKYNEKFQGRVTISSDKSISTAYMELSSLRSEDTAMYYCARGTYYYGTRVFDYWGQGTLVTVSSASTKGPSVFPLAPSSKSTSGGTAALGCLVKDYFPEPVTVSWNSGALTSGVHTFPAVLQSSGLYSLSSVVTVPSSSLGTQTYICNVNHKPSNTKVDKKVEPKSCDKTHTCPPCPAPEWLGGPSVFLFPPKPKDTLMISRTPEVTCVVVDVSHEDPEVKFNWYVDGVEVHNAKTKPREEQYNSTYRVVSVLTVLHQDWLNGKEYKCKVSNKAYPAPEEKTISKAKGQPREPQVYTLPPSREEMTKNQVSLTCLVKGFYPSDIAVEWESNGQPENNYKTTPPVLDSDGSFFLYSKLTVDKSRWQQGNVFSCSVMHEALHNHYTQKSLSLSPGK light: DIVMTQSPATLSLSPGERATLSCRSSKSLQNVNGNTYLYWFQQKPGQSPQLLIYRMSNLNSGVPDRFSGSGSGTEFTLTISSLEPEDFAVYYCMQHLEYPITFGAGTKLEIKRTVAAPSVFIFPPSDEQLKSGTASVVCLLNNFYPREAKVQWKVDNALQSGNSQESVTEQDSKDSTYSLSSTLTLSKADYEKHKVYACEVTHQGLSSPVTKSFNRGEC | 6.32 | 232 | 0.617 | 2.04 |
| L235F/H268D/L328Y (antibody, human IgG1, kappa, HuAM4G7 anti-CD19 IgG1 (m1) with these Fc substitutions, EU index; copies: 2 + 2) heavy: EVQLVESGGGLVKPGGSLKLSCAASGYTFTSYVMHWVRQAPGKGLEWIGYINPYNDGTKYNEKFQGRVTISSDKSISTAYMELSSLRSEDTAMYYCARGTYYYGTRVFDYWGQGTLVTVSSASTKGPSVFPLAPSSKSTSGGTAALGCLVKDYFPEPVTVSWNSGALTSGVHTFPAVLQSSGLYSLSSVVTVPSSSLGTQTYICNVNHKPSNTKVDKKVEPKSCDKTHTCPPCPAPELFGGPSVFLFPPKPKDTLMISRTPEVTCVVVDVSDEDPEVKFNWYVDGVEVHNAKTKPREEQYNSTYRVVSVLTVLHQDWLNGKEYKCKVSNKAYPAPIEKTISKAKGQPREPQVYTLPPSREEMTKNQVSLTCLVKGFYPSDIAVEWESNGQPENNYKTTPPVLDSDGSFFLYSKLTVDKSRWQQGNVFSCSVMHEALHNHYTQKSLSLSPGK light: DIVMTQSPATLSLSPGERATLSCRSSKSLQNVNGNTYLYWFQQKPGQSPQLLIYRMSNLNSGVPDRFSGSGSGTEFTLTISSLEPEDFAVYYCMQHLEYPITFGAGTKLEIKRTVAAPSVFIFPPSDEQLKSGTASVVCLLNNFYPREAKVQWKVDNALQSGNSQESVTEQDSKDSTYSLSSTLTLSKADYEKHKVYACEVTHQGLSSPVTKSFNRGEC | 3.97 | 370 | 6.82 | 3.17 |
| L235F/L328Y/I332E (antibody, human IgG1, kappa, HuAM4G7 anti-CD19 IgG1 (m1) with these Fc substitutions, EU index; copies: 2 + 2) heavy: EVQLVESGGGLVKPGGSLKLSCAASGYTFTSYVMHWVRQAPGKGLEWIGYINPYNDGTKYNEKFQGRVTISSDKSISTAYMELSSLRSEDTAMYYCARGTYYYGTRVFDYWGQGTLVTVSSASTKGPSVFPLAPSSKSTSGGTAALGCLVKDYFPEPVTVSWNSGALTSGVHTFPAVLQSSGLYSLSSVVTVPSSSLGTQTYICNVNHKPSNTKVDKKVEPKSCDKTHTCPPCPAPELFGGPSVFLFPPKPKDTLMISRTPEVTCVVVDVSHEDPEVKFNWYVDGVEVHNAKTKPREEQYNSTYRVVSVLTVLHQDWLNGKEYKCKVSNKAYPAPEEKTISKAKGQPREPQVYTLPPSREEMTKNQVSLTCLVKGFYPSDIAVEWESNGQPENNYKTTPPVLDSDGSFFLYSKLTVDKSRWQQGNVFSCSVMHEALHNHYTQKSLSLSPGK light: DIVMTQSPATLSLSPGERATLSCRSSKSLQNVNGNTYLYWFQQKPGQSPQLLIYRMSNLNSGVPDRFSGSGSGTEFTLTISSLEPEDFAVYYCMQHLEYPITFGAGTKLEIKRTVAAPSVFIFPPSDEQLKSGTASVVCLLNNFYPREAKVQWKVDNALQSGNSQESVTEQDSKDSTYSLSSTLTLSKADYEKHKVYACEVTHQGLSSPVTKSFNRGEC | 3.31 | 443 | 0.843 | 4.11 |
| L234W/S239D/L328Y (antibody, human IgG1, kappa, HuAM4G7 anti-CD19 IgG1 (m1) with these Fc substitutions, EU index; copies: 2 + 2) heavy: EVQLVESGGGLVKPGGSLKLSCAASGYTFTSYVMHWVRQAPGKGLEWIGYINPYNDGTKYNEKFQGRVTISSDKSISTAYMELSSLRSEDTAMYYCARGTYYYGTRVFDYWGQGTLVTVSSASTKGPSVFPLAPSSKSTSGGTAALGCLVKDYFPEPVTVSWNSGALTSGVHTFPAVLQSSGLYSLSSVVTVPSSSLGTQTYICNVNHKPSNTKVDKKVEPKSCDKTHTCPPCPAPEWLGGPDVFLFPPKPKDTLMISRTPEVTCVVVDVSHEDPEVKFNWYVDGVEVHNAKTKPREEQYNSTYRVVSVLTVLHQDWLNGKEYKCKVSNKAYPAPIEKTISKAKGQPREPQVYTLPPSREEMTKNQVSLTCLVKGFYPSDIAVEWESNGQPENNYKTTPPVLDSDGSFFLYSKLTVDKSRWQQGNVFSCSVMHEALHNHYTQKSLSLSPGK light: DIVMTQSPATLSLSPGERATLSCRSSKSLQNVNGNTYLYWFQQKPGQSPQLLIYRMSNLNSGVPDRFSGSGSGTEFTLTISSLEPEDFAVYYCMQHLEYPITFGAGTKLEIKRTVAAPSVFIFPPSDEQLKSGTASVVCLLNNFYPREAKVQWKVDNALQSGNSQESVTEQDSKDSTYSLSSTLTLSKADYEKHKVYACEVTHQGLSSPVTKSFNRGEC | 32.8 | 44.8 | 44.1 | 5.92 |
| K326E (antibody, human IgG1, kappa, HuAM4G7 anti-CD19 IgG1 (m1) with this Fc substitution, EU index; copies: 2 + 2) heavy: not shown light: DIVMTQSPATLSLSPGERATLSCRSSKSLQNVNGNTYLYWFQQKPGQSPQLLIYRMSNLNSGVPDRFSGSGSGTEFTLTISSLEPEDFAVYYCMQHLEYPITFGAGTKLEIKRTVAAPSVFIFPPSDEQLKSGTASVVCLLNNFYPREAKVQWKVDNALQSGNSQESVTEQDSKDSTYSLSSTLTLSKADYEKHKVYACEVTHQGLSSPVTKSFNRGEC | 6.09 | 241 | 0.605 | 1.03 |
| K326W (antibody, human IgG1, kappa, HuAM4G7 anti-CD19 IgG1 (m1) with this Fc substitution, EU index; copies: 2 + 2) heavy: not shown light: DIVMTQSPATLSLSPGERATLSCRSSKSLQNVNGNTYLYWFQQKPGQSPQLLIYRMSNLNSGVPDRFSGSGSGTEFTLTISSLEPEDFAVYYCMQHLEYPITFGAGTKLEIKRTVAAPSVFIFPPSDEQLKSGTASVVCLLNNFYPREAKVQWKVDNALQSGNSQESVTEQDSKDSTYSLSSTLTLSKADYEKHKVYACEVTHQGLSSPVTKSFNRGEC | 3.04 | 483 | 0.429 | 0.078 |
